Reference: article PMC8783683, “Plasma cell dependence on histone/protein deacetylase 11 reveals a therapeutic target in multiple myeloma” (JCI Insight, 2021)

What was measured:
[1] = target: T1, IFN response factor 4 (IRF4), endogenous (human (endogenous in MM1.S and primary …, UniProt Q15306 1-451)); experiment: proximity ligation assay (PLA); conditions: MM1.S cells transfected with OE.HDAC11mut, read off a plot
T1 construct: IRF4, endogenous in human multiple myeloma cells (MM1.S line and primary patient MM cells), detected or precipitated by anti-IRF4; source: endogenous, MM1.S cells (fixed cells and lysate); endogenous, patient-derived primary MM cells
T1 sequence (looked up): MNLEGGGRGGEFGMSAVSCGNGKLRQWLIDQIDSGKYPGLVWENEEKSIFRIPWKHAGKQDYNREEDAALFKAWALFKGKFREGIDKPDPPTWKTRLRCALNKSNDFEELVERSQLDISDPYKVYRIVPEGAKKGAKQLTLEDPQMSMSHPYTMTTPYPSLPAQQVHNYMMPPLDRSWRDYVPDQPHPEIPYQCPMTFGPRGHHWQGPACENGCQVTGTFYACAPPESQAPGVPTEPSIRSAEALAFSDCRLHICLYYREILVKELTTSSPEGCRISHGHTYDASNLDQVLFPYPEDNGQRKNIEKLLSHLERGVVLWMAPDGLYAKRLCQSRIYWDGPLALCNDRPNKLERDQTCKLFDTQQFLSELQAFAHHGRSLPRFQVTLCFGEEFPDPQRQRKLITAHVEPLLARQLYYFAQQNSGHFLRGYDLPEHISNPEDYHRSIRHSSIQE

[2] = target: T1, IFN response factor 4 (IRF4), endogenous; experiment: proximity ligation; primary MM cells from patient samples, cultured with the patient's serum, untreated or with LPS (5 μg/mL, 24 hours); conditions: partners not purified

## HA-tagged WT HDAC11 (HDAC11^wt.HA) (from UniProt Q96DB2) HDAC11mut
[1]; cytoplasmic foci, parent: est. 17
  response (# Foci Per Cell): 18
[1]; nuclear foci, parent: est. 105
  response (# Foci Per Cell): 13

B1: histone/protein deacetylase 11 (HDAC11), endogenous (enzyme, UniProt Q96DB2 1-347, looked up)
chain: MLHTTQLYQHVPETRWPIVYSPRYNITFMGLEKLHPFDAGKWGKVINFLKEEKLLSDSMLVEAREASEEDLLVVHTRRYLNELKWSFAVATITEIPPVIFLPNFLVQRKVLRPLRTQTGGTIMAGKLAVERGWAINVGGGFHHCSSDRGGGFCAYADITLAIKFLFERVEGISRATIIDLDAHQGNGHERDFMDDKRVYIMDVYNRHIYPGDRFAKQAIRRKVELEWGTEDDEYLDKVERNIKKSLQEHLPDVVVYNAGTDILEGDRLGGLSISPAGIVKRDELVFRMVRGRRVPILMVTSGGYQKRTARIIADSILNLFGLGLIGPESPSVSAQNSDTPLLPPAVP
notes: HDAC11, endogenous in human multiple myeloma cells (MM1.S line and primary patient MM cells), detected by mouse anti-HDAC11 in PLA; source: endogenous, MM1.S cells; endogenous, patient-derived primary MM cells
[2]
  fold increase of nuclear PLA complexes with LPS against untreated cells: 4.5 fold
